Our source for the Kd values is patent US20240033343A1.

As usually defined, the Kd is the free concentration of one partner at which half of the binding sites on the other are occupied at equilibrium, for simple one-to-one binding.

Targets include S2GGSGG (SARS-CoV-2) (UniProt P0DTC2); S2GSG (SARS-CoV-2) (UniProt P0DTC2); AAAA (SARS-CoV-2; HIV) (UniProt P0DTC2); S1GSG (SARS-CoV-2) (UniProt P0DTC2); W1GSG (SARS-CoV-2) (UniProt P0DTC2); W2GSG (SARS-CoV-2; HIV) (UniProt P0DTC2); S1GGSGG (SARS-CoV-2) (UniProt P0DTC2); W1GGSG (SARS-CoV-2; HIV) (UniProt P0DTC2); RAA (SARS-CoV-2; HIV) (UniProt P0DTC2); M1GGSGG (SARS-CoV-2) (UniProt P0DTC2).

Assay [1] addresses SARS-CoV-2 Sclamp (SARS-CoV-2) (UniProt P0DTC2).
The target in assay [2] is W2GGSGG (SARS-CoV-2; HIV) (UniProt P0DTC2).

With CR3022 (antibody), the dissociation constant Kd in the assay with S2GGSGG (SARS-CoV-2) was 1.18 nM; in the assay with S2GSG (SARS-CoV-2), 1.03 nM; with AAAA (SARS-CoV-2; HIV), 0.74 nM; in the assay with S1GSG (SARS-CoV-2) it was 1.02 nM; in the assay with W1GSG (SARS-CoV-2), 1.08 nM; in the assay with W2GSG (SARS-CoV-2; HIV), 2.06 nM. Also, the equilibrium dissociation constant (Kd) in the assay with S1GGSGG (SARS-CoV-2) stood at 0.69 nM; in the assay with W1GGSG (SARS-CoV-2; HIV), 0.89 nM; with RAA (SARS-CoV-2; HIV) it was 0.91 nM; in assay [1] it was 0.58 nM; with M1GGSGG (SARS-CoV-2), 0.57 nM; in [2], 1.09 nM.
